Experimental data published in publication PMC11720163, “Position-Dependent Effects of AP Sites Within an hTERT Promoter G-Quadruplex Scaffold on Quadruplex Stability and Repair Activity of the APE1 Enzyme”.

B1: 96-G4 (structured_DNA)
DNA: GCCGCGGAAAGGAAGGGGAGGGGCTGGGAGGGCCCGGAGGGGGCTGGGCCGGGGACCCGGGAGGGGTCGGGACGGGGCGGGGTCCGCGCGGAGGAG

Experiments:
[1] = target: APE1 (human AP endonuclease 1), His-tagged (Homo sapiens) (UniProt P27695); test: BLI; details: 1 mM Ca2+, N = F, BLI: 20 mM Tris-HCl pH 7.5, 100 mM KCl, 1 mM CaCl2, DNA 10-100 nM, temperature not stated, DNA annealed with at least 20 mM KCl
APE1 (human AP endonuclease 1), His-tagged (Homo sapiens), sequence (P27695 whole entry): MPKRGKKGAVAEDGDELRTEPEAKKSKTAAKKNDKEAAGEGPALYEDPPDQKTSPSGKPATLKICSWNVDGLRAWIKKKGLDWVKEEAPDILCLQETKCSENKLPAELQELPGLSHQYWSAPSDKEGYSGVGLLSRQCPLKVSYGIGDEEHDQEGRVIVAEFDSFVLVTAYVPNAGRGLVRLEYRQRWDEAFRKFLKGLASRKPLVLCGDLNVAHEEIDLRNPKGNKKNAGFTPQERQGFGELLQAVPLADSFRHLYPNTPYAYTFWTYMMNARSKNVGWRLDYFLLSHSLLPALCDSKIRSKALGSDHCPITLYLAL

[2] = target: APE1 (human AP endonuclease 1), His-tagged (Homo sapiens, UniProt P27695 1-318); test: BLI; 1 mM Ca2+; BLI: 20 mM Tris-HCl pH 7.5, 100 mM KCl, 1 mM CaCl2; DNA 10-100 nM; temperature not stated; DNA annealed with at least 20 mM KCl; details: protein: recombinant; label: 3'-TAMRA; three stacked intramolecular parallel G4s
APE1 (human AP endonuclease 1), His-tagged, sequence (P27695 whole entry): as above

| Molecule | Kd ([1]; stable AP site analog) [nM] | other results |
| --- | --- | --- |
| GCCGCGGAAAGGAAGGGGAGGGGCTGGGAGGGCCCGGAGGGGGCTGGGCCGGNGACCCGGGAGGGGTCGGGACGGGGCGGGGTCCGCGCGGAGGAG [96-G243F] | 3 |  |
| GCCGCGGAAAGGAAGGGGAGGGGCTGGGAGGGCCCGGAGGGGGCTGGGCCGGGGACCCGGNAGGGGTCGGGACGGGGCGGGGTCCGCGCGGAGGAG [96-G250F] | 3 |  |
| ACCTGGATGCCTATAGGGCGAATTGGGTACCGCTGAATTGCACTGGACTNGATCCTCGATGATCCTAAGCTAAGCTTCAGCTCCAGCCTAAGCCTG [96-RF] |  | Kd fold-increase relative to G4 substrates (fold higher Kd than G4 substrates) ([1]; stable AP site analog): 10 |
| GCCGCGGAAAGGAAGGGGAGGGGCTGGGAGGGCCCGGAGGGGGCTGGGCCGNGGACCCGGGAGGGGTCGGGACGGGGCGGGGTCCGCGCGGAGGAG [96-G242F] | 3 |  |
| GCCGCGGAAAGGAAGGGGAGGGGCTGGGAGGGCCCGGANGGGGCTGGGCCGGGGACCCGGGAGGGGTCGGGACGGGGCGGGGTCCGCGCGGAGGAG [96-G228F] | 3 |  |
| GCCGCGGAAAGGAAGGGGAGGGGCTGGGAGGGCCCGGAGGGGGCTGGGCCGNNGACCCGGGAGGGGTCGGGACGGGGCGGGGTCCGCGCGGAGGAG [96-G242,243F] |  | Kd ([1]; stable AP site analog (two)): 3 nM |
| B1 |  | Kd [2]: 4.2 ± 1.4 nM |
